Experimental data published in article PMC5840032 (Bioorganic & medicinal chemistry, 2017).

Target: anthrax lethal factor (LF) protease (UniProt P15917 34-809)
Assay: enzyme inhibition assay

Chain of anthrax lethal factor (LF) protease (P15917 34-809): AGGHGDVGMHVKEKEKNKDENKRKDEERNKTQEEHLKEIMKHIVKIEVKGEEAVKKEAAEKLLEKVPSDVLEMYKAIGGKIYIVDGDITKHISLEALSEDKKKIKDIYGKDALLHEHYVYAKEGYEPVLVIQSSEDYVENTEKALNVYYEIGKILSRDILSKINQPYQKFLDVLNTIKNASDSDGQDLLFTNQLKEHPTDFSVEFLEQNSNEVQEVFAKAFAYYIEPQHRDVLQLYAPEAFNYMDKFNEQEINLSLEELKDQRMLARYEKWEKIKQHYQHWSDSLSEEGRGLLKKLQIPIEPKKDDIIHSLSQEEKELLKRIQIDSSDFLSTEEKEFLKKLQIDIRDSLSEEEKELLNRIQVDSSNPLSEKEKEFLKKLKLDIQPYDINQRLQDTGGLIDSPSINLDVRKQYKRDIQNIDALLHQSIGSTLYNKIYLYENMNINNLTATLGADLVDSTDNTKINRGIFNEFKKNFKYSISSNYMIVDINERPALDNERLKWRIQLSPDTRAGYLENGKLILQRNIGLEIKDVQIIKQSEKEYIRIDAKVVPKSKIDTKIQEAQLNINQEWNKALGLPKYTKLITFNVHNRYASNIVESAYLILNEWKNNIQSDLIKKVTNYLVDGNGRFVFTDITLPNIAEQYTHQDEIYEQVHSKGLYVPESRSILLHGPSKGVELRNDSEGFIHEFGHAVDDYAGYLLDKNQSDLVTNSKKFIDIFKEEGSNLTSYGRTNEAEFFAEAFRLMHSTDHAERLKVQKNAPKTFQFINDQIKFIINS

## GFCRCACLHGVCRCICTR (not fully specified; backbone-cyclized; three disulfide bonds) [RTD-1 analog clone #14]
  Ki: 946 ± 47 nM

## GFCRCPCSRYGCWCICTR (not fully specified; backbone-cyclized; three disulfide bonds) [RTD-1 analog clone #52]
  Ki: 946 ± 58 nM
